# Source: patent publication US20190358242A1, “COMPOSITIONS, KITS, AND METHODS TO INDUCE ACQUIRED CYTORESISTANCE USING STRESS PROTEIN INDUCERS” (FRED HUTCHINSON CANCER RESEARCH CENTER, priority 2017, published 2019)
# Where “and” joins values, the source holds several entries; their conditions need not be identical. Equal entries are not always repeated.
# B1: myoglobin (protein, UniProt P68082 2-154, looked up)
# Myoglobin: GLSDGEWQQVLNVWGKVEADIAGHGQEVLIRLFTGHPETLEKFDKFKHLKTEAEMKASEDLKKHGTVVLTALGGILKKKGHHEAELKPLAQSHATKHKIPIKYLEFISDAIIHVLHSKHPGDFGADAQGAMTKALELFRNDIAAKYKELGFQG
# notes: Lyophilized horse skeletal muscle (myoglobin) (Sigma Chemicals), a heme protein
# Assays:
# [1] = tested on: HO-1 mRNA; assay: Renal HO-1 mRNA (RT-PCR, HO-1/GAPDH) after IV myoglobin, SnPP or both; assay type: in vivo, CD-1 mice
# Text: (§1) The Glycerol Model of AKI. This is a widely used model of rhabdomyolysis-induced AKI that has been employed worldwide for 50 years. The model was used to test whether prophylactic interventions confer protection against AKI. Basically, the protocol is as follows: Male CD-1 mice (35-45 grams), obtained from Charles River Laboratories, Wilmington, Mass. were studied. Mice were maintained under standard vivarium conditions and generally housed for 1-3 weeks prior to study. The mice were placed in a cylindrical restraining cage, and then were given a tail vein injection of the test substances (see below) or test substance vehicle. The mice were then returned to their cages. Eighteen hours (hrs) later, the mice were briefly anesthetized by isoflurane inhalation, and given an intramuscular injection of hypertonic (50%) glycerol in a dose of 9 ml/Kg body weight. The dose is divided in two, with half injected into the muscle of each of the hind limbs. The mice were then returned to their cages. Eighteen hrs later, the mice were deeply anesthetized with pentobarbital (50-100 mg/Kg), the abdominal cavity was opened through a midline abdominal incision, a blood sample was obtained from the abdominal vena cava and the kidneys were resected. A kidney cross section was obtained and fixed in formalin for subsequent histologic analysis. The terminal blood samples were analyzed for BUN and creatinine, using commercially available assay kits. The remaining kidney tissue was subjected to cortical dissection, and the cortical tissues were then extracted for protein and RNA. The protein samples were saved for analysis of HO-1 levels, and the RNA samples were subjected to RT-PCR to quantify HO-1 mRNA as well as levels of other stress gene mRNAs (e.g. NGAL, haptoglobin, hemopexin, hepicidin).
# (§2) Myoglobin+SnPP: To 5 mg of dry myoglobin was added 0.9 ml of PBS+0.1 ml of a stock SnPP solution (50 umole/ml). The resulting final concentrations were 5 mg/ml myoglobin+5 umoles/ml of SnPP. The tail vein was injected with 200 ul of this solution, which equals 1 mg myoglobin+1 umole SnPP. […]
# […] To confirm that the myoglobin+SnPP has a synergistic effect in inducing HO-1 mRNA and HO-1 protein levels, each of the above combinations have been administered alone via tail vein injection. […] For additional information regarding methods, see Zager et al., Am J Physiol Renal Physiol. 2014 Jul. 30. Pii.
# [2] = design: species or system mice; details: mouse, in vivo, iv
# [3] = tested on: HO-1 protein; assay: Renal cortex HO-1 protein (ELISA) after IV myoglobin, SnPP or both; assay type: in vivo, CD-1 mice; details: overnight (roughly 18 hrs) post IV; 1 mg myoglobin, 1 μmole SnPP
# [4] = tested on: HK-2 cells; assay: HK-2 cell injury by MTT assay; assay type: cell-based; details: 10 mg/mL, 18 hr incubation
# Procedure: HK-2 cells (a proximal tubule cell line derived from normal human kidney) were incubated in keratinocyte serum free medium either under normal (control) conditions or in the presence of 10 mg/mL horse skeletal muscle myoglobin or nitrited myoglobin (produced by equimolar Na nitrite addition to 10 mg/ml myoglobin). After 18 hr incubations, the severity of cell injury (% cell death) was assessed by MTT assay. Myoglobin induced 40% cell death (40% decrease in MTT cell uptake), compared to control incubated cells. Nitrite binding to myoglobin reduced cell death by 75%. Thus, nitrite binding is able to reduce myoglobin's cytotoxic effects.
# [5] = tested on: haptoglobin; assay: Haptoglobin protein expression after SQ injection of myoglobin with or without PEG; assay type: in vivo, mice; details: 4 hour time point after SQ injection
# Procedure: Myoglobin+PEG: To a stock solution of 20 mg/ml Mgb in PBS was added 100 mg/ml of PEG-6000; […]. This was administered as a subcutaneous injection in the dorsal neck (250 ul total injection). For combined Mgb/PEG+SnPP, SnPP was added to the above in a concentration of 3 mg/ml.
# [6] = tested on: HO-1 protein; assay: Renal cortex HO-1 protein (ELISA) after IV myoglobin, SnPP or both; assay type: in vivo, CD-1 mice; details: 4 hr IV; 1 mg myoglobin, 1 μmole SnPP
# Text: as §1, §2
# Four hr post myoglobin vs myoglobin+SnPP vs SnPP alone experiments. To confirm that the myoglobin+SnPP has a synergistic effect in inducing HO-1 mRNA and HO-1 protein levels, each of the above combinations have been administered alone via tail vein injection. Four hrs later, the mice were sacrificed as noted above and the kidneys were harvested for assessment of HO-1 mRNA and protein levels. For additional information regarding methods, see Zager et al., Am J Physiol Renal Physiol. 2014 Jul. 30. Pii.
# Given that it is just 4 hrs post injection, the mRNA increases are greater than the protein increases as protein synthesis must follow the mRNA induction-requiring more time.
# [7] = overnight (roughly 18 hrs) post IV, 1 mg myoglobin, 1 μmole SnPP
molecule,measurement,setting,value
B1,"HO-1/GAPDH mRNA, Average","[1]; kidney, 4 hr post IV injection",3.93
same,"HO-1/GAPDH mRNA, individual mice","[1]; kidney, 4 hr post IV injection",7.78 and 2.93 and 2.58 and 2.41
same,"HO-1/GAPDH mRNA, Average",[1]; [7],0.58
same,"HO-1/GAPDH mRNA, individual subjects",[1]; [7],0.71 and 0.53 and 0.51
same,"Plasma LDH, Average",[2],4.47 Absorbance U LDH/ml
same,"HO-1 protein induction, Average",[3],36.7
same,"HO-1 protein induction, individual subjects",[3],50.6 and 34.9 and 24.6
same,Cell death (decrease in MTT cell uptake) vs control incubated cells,[4],40%
same,Haptoglobin protein expression,[5],32.7 ± 6.3 ng/mg ng/mg protein
same,"Cortex HO-1 protein (ELISA), Average",[6],45.4 ng HO-1/mg protein
same,"Cortex HO-1 protein (ELISA), individual mice",[6],40.7 ng HO-1/mg protein and 40.2 ng HO-1/mg protein and 64.7 ng HO-1/mg protein and 36.0 ng HO-1/mg protein
